Source: the supplement of paper PMC10126150
± gives the standard deviation of the averaged measurements.

tested on: ATP; assay: switch fluorescence ratio, 500 uM ATP over buffer (Cy3 cluster intensity, sum of 5 cycles each) (fold (ratio)); higher = stronger signal-on switching upon ATP binding; sequences stand for … in TCGTCGGCAGCGTCAGATGTGTATAAGAGACAGTTTTTTTTTTTTTTTTTTTTTTTTT…TC; settings: aptamer strand: ATP DNA aptamer (quencher-CACCTGGGGGAGTATTGCGGAGGAAGG + anchor), 100 nM annealed; ATP concentration: 500 uM
Outline: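 After annealing to 100 nM quencher-labelled ATP aptamer, Cy3-labelled switching-strand clusters on a modified Illumina MiSeq flow-cell were imaged in selection buffer. A second image followed after 15 min with 500 uM ATP at 22 °C, and five such buffer/ATP cycles were done, each separated by NaOH stripping and re-annealing. The fluorescence ratio, averaged per switch-domain sequence, is summed target-cycle over summed buffer-cycle Cy3 intensity per cluster, with clusters outside 100-1000 RFU excluded.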
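Further: ATP exposure 15 min at 22 °C before imaging.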

First: GTAGGGGTAA
Second: TTATGAGGTG
The switch fluorescence ratio of the first is lower: 0.974 ± 0.036 for the first, 1.08 ± 0.061 for the second.

Compared with CTGAAGCTAG, TTATTGGTCG is lower in switch fluorescence ratio: 2.27 ± 0.0024 for the first, 1.02 ± 0.061 for the second.

CATCATGGTC and TTTAATGCTG are within error of each other in switch fluorescence ratio: 1.03 ± 0.054 for the first, 1.01 ± 0.021 for the second.

AAGAGGCGGT and TTCGATTTAT are within error of each other in switch fluorescence ratio: 1.01 ± 0.022 for the first, 1.03 ± 0.024 for the second.

GAGCTTTTCA and TCTGTTGTTC are within error of each other in switch fluorescence ratio: 0.965 ± 0.023 for the first, 0.993 ± 0.018 for the second.

CTGGGGGGCG and TTGAGGGTCG are within error of each other in switch fluorescence ratio: 0.984 ± 0.066 for the first, 0.995 ± 0.035 for the second.

ACTAGAGCCA and TGCAAGGTTA are within error of each other in switch fluorescence ratio: 0.982 ± 0.011 for the first, 1.02 ± 0.051 for the second.

TTAAGTAATG and TATACCCTTT are the same in switch fluorescence ratio: 1.002 ± 0.0016 for the first, 1 ± 0.052 for the second.

GTTTCGCGGT and ATCAGGGGGC are within error of each other in switch fluorescence ratio: 1.04 ± 0.067 for the first, 1.03 ± 0.036 for the second.

CATTGGTCGC and GTCGCGGGGG are within error of each other in switch fluorescence ratio: 0.997 ± 0.035 for the first, 1.04 ± 0.071 for the second.

AAAATTTTAT and GAACTAGGGG are within error of each other in switch fluorescence ratio: 0.989 ± 0.026 for the first, 1.05 ± 0.088 for the second.

TTCAGGGGTG and CGGGGTCAAT are within error of each other in switch fluorescence ratio: 1.1 ± 0.033 for the first, 1.85 ± 1.2 for the second.

Compared with TTGCCTTCCG, ATCCCTTCCA is lower in switch fluorescence ratio: 2.17 ± 0.27 for the first, 1.24 ± 0.087 for the second.

GTGGGACATA and TTATATGTGA are within error of each other in switch fluorescence ratio: 0.999 ± 0.044 for the first, 1.04 ± 0.011 for the second.

First: AATGACTCGT
Second: AAAACTAACG
The switch fluorescence ratio of the first is lower: 0.974 ± 0.01 for the first, 1.1 ± 0.037 for the second.

Going from CGACCTTGCT to AAAACAGTTT, the switch fluorescence ratio falls from 1.55 ± 0.26 to 0.987 ± 0.036.

CACTTCCTTA and GAAATGTATT are within error of each other in switch fluorescence ratio: 1.098 ± 0.0081 for the first, 1.04 ± 0.063 for the second.

TTATGTGGAG and AATGTGCCCA are within error of each other in switch fluorescence ratio: 0.974 ± 0.015 for the first, 0.9775 ± 0.007 for the second.

CGAAGGGCG and AGTTAGTGT are within error of each other in switch fluorescence ratio: 1.03 ± 0.029 for the first, 0.978 ± 0.051 for the second.

CTCTAATGAA and GGGTGCATCG are within error of each other in switch fluorescence ratio: 0.992 ± 0.037 for the first, 1.004 ± 0.0046 for the second.

CCTGACAGCG and ATGGTAGATA are within error of each other in switch fluorescence ratio: 1.012 ± 0.0083 for the first, 1.02 ± 0.0041 for the second.

ATTTCATCGT and CTCTCCTTGT are within error of each other in switch fluorescence ratio: 1.03 ± 0.012 for the first, 1.3 ± 0.38 for the second.

AGCGATGGCC and GAGTAATGAG are within error of each other in switch fluorescence ratio: 1.05 ± 0.028 for the first, 0.984 ± 0.068 for the second.

TTCGGGGGAC and TTTAGGTTCC are within error of each other in switch fluorescence ratio: 1.13 ± 0.14 for the first, 1.015 ± 0.005 for the second.

Going from ATATTTCTAA to CGAGGCATTA, the switch fluorescence ratio rises from 1.0113 ± 0.00013 to 4.8 ± 1.4.

TTAGTCAATG and GGAAAGTCGT are within error of each other in switch fluorescence ratio: 0.999 ± 0.022 for the first, 1.03 ± 0.018 for the second.

First: GGGAAATGCG
Second: CGCTAGGGTA
The switch fluorescence ratio of the first is lower: 0.9983 ± 0.0053 for the first, 1.04 ± 0.036 for the second.

First: TGTGTTTAAA
Second: ATGTTTACTG
The switch fluorescence ratio of the first is lower: 0.967 ± 0.021 for the first, 1.033 ± 0.0082 for the second.

GCAATTGAGT and AGTGCAAAAG are within error of each other in switch fluorescence ratio: 0.997 ± 0.036 for the first, 1.06 ± 0.029 for the second.

AGGTTTATGT and CGTAACTTGG are the same in switch fluorescence ratio: 1.0099 ± 0.00068 for the first, 1.01 ± 0.029 for the second.

CAACAGTTTT and CGGTAACTAT are within error of each other in switch fluorescence ratio: 1 ± 0.012 for the first, 1.02 ± 0.017 for the second.

Going from GCGATAGTTG to CGCATAGGCC, the switch fluorescence ratio rises from 1.02 ± 0.053 to 1.77 ± 0.2.

Going from CCAATGCTGT to ATAGTGGAGG, the switch fluorescence ratio falls from 1.115 ± 0.0091 to 1.01 ± 0.025.

GGGGAGGCCA and AAAAATCCTG are within error of each other in switch fluorescence ratio: 0.963 ± 0.031 for the first, 0.98 ± 0.021 for the second.

TGGATGGGGC and CGGGCCGAGG are within error of each other in switch fluorescence ratio: 1 ± 0.012 for the first, 1.02 ± 0.018 for the second.

AATTTTGCTT and TTTGTGATTG are within error of each other in switch fluorescence ratio: 1.01 ± 0.015 for the first, 0.985 ± 0.094 for the second.

TAATAGAGCT and TATCTGGGCC are within error of each other in switch fluorescence ratio: 0.995 ± 0.03 for the first, 1.03 ± 0.011 for the second.

Going from AATTTGGGGA to CACACTCGCT, the switch fluorescence ratio rises from 0.968 ± 0.013 to 1.01 ± 0.024.

CTAGGTATCA and AGATTTTTGA are within error of each other in switch fluorescence ratio: 0.965 ± 0.054 for the first, 0.942 ± 0.069 for the second.

AAGCGAACAT and TTTTACTGCA are within error of each other in switch fluorescence ratio: 1.08 ± 0.076 for the first, 1.07 ± 0.073 for the second.

TTATCGCTTA and AGCATAAGGC are within error of each other in switch fluorescence ratio: 1.04 ± 0.098 for the first, 1.02 ± 0.019 for the second.

ATTGTTTTTT and CGCGTGTGTG are within error of each other in switch fluorescence ratio: 0.995 ± 0.01 for the first, 1.02 ± 0.038 for the second.

First: ACGTTTTTGT
Second: CAGGTTGAAG
The switch fluorescence ratio of the first is higher: 1.027 ± 0.0097 for the first, 0.9631 ± 0.0069 for the second.

CCTTATTGGG and TACAAAGCAG are within error of each other in switch fluorescence ratio: 1.05 ± 0.037 for the first, 1.11 ± 0.037 for the second.

GTTGATTCTA and ATCTTAATTG are within error of each other in switch fluorescence ratio: 0.988 ± 0.034 for the first, 1.005 ± 0.0075 for the second.

TTTATAAGGG and TGTCACCAGT are within error of each other in switch fluorescence ratio: 0.995 ± 0.013 for the first, 1.02 ± 0.016 for the second.

First: CTGGCGAGCG
Second: CACATAAAAG
The switch fluorescence ratio of the first is higher: 1.03 ± 0.011 for the first, 0.987 ± 0.027 for the second.

TGTTGGTCTG and ATTGGGAGAG are within error of each other in switch fluorescence ratio: 0.978 ± 0.031 for the first, 1.02 ± 0.035 for the second.

GCTCGTACGA and TTGCCATGTG are within error of each other in switch fluorescence ratio: 1.03 ± 0.027 for the first, 1 ± 0.034 for the second.

TTCTGAGGTA and TTTATCGATT are within error of each other in switch fluorescence ratio: 1.01 ± 0.03 for the first, 0.991 ± 0.036 for the second.

Compared with AATCAAGAGT, GAATAAAGGT is lower in switch fluorescence ratio: 1.028 ± 0.0031 for the first, 0.979 ± 0.02 for the second.

GCATGTATGG and TCCCTTTAGT are within error of each other in switch fluorescence ratio: 0.983 ± 0.044 for the first, 1.01 ± 0.024 for the second.

GGGCTCTTGC and TTTGAAGGAA are within error of each other in switch fluorescence ratio: 0.98 ± 0.068 for the first, 0.986 ± 0.017 for the second.

GGTAGCCGGT and TGAGATCTGG are within error of each other in switch fluorescence ratio: 1.01 ± 0.041 for the first, 0.982 ± 0.035 for the second.

TTTACTTCTC and TGCCTAATTG are within error of each other in switch fluorescence ratio: 1.02 ± 0.032 for the first, 0.977 ± 0.026 for the second.

Going from GAAACTAGAG to GATCATCCTT, the switch fluorescence ratio rises from 0.986 ± 0.0047 to 1.03 ± 0.0052.

TTTTGTATAT and ATTTAGGACA are the same in switch fluorescence ratio: 1.01 ± 0.025 for the first, 1.01 ± 0.021 for the second.

First: GTGGGATTGC
Second: CCGGTACTAT
The switch fluorescence ratio of the first is lower: 0.9959 ± 0.0067 for the first, 1.167 ± 0.0092 for the second.

Going from CTGCATCCGG to TATTTTATGG, the switch fluorescence ratio falls from 1.314 ± 0.011 to 0.998 ± 0.025.

First: TAGATCTGGG
Second: TCTGAGCGAC
The switch fluorescence ratio of the first is lower: 1.002 ± 0.0072 for the first, 1.57 ± 0.14 for the second.

Compared with TTGGGAATTC, AGTACGAGCC is higher in switch fluorescence ratio: 0.98044 ± 0.00048 for the first, 1.186 ± 0.0026 for the second.

CTGGAAATTG and TCTATGGGAC are within error of each other in switch fluorescence ratio: 1.03 ± 0.036 for the first, 1.05 ± 0.013 for the second.

First: CGGCGCATTA
Second: AGGGAAGTTT
The switch fluorescence ratio of the first is higher: 2.86 ± 0.55 for the first, 1.03 ± 0.084 for the second.

GAGTAAAGGG and GGATGGATGA are within error of each other in switch fluorescence ratio: 0.9992 ± 0.0019 for the first, 1.07 ± 0.073 for the second.

GTTTATGTAC and ATGGCGGGGA are within error of each other in switch fluorescence ratio: 1.07 ± 0.065 for the first, 0.984 ± 0.052 for the second.

GAGTCCACGT and TTTTTGGTAC are within error of each other in switch fluorescence ratio: 1 ± 0.034 for the first, 1.05 ± 0.076 for the second.

TTATGCACGT and TGTTAGGGGA are within error of each other in switch fluorescence ratio: 1.04 ± 0.049 for the first, 1.01 ± 0.02 for the second.

ATTTACGTCT and GCTGGGTCGA are within error of each other in switch fluorescence ratio: 1.04 ± 0.056 for the first, 1.03 ± 0.01 for the second.

First: AAGGTTAGTA
Second: CGAAGCATTT
The switch fluorescence ratio of the first is lower: 0.9924 ± 0.007 for the first, 3.73 ± 0.14 for the second.

Going from AAACCTTGCA to AGGGGCCGGG, the switch fluorescence ratio falls from 1.92 ± 0.15 to 1.05 ± 0.12.

CCGCGGGATT and TAAGTGGTGC are within error of each other in switch fluorescence ratio: 1.28 ± 0.32 for the first, 1.05 ± 0.031 for the second.

CAAATGAAGT and ATTTATCCAA are within error of each other in switch fluorescence ratio: 1.02 ± 0.018 for the first, 1 ± 0.039 for the second.

TTTAGTAGGG and TTCGGACTTC are within error of each other in switch fluorescence ratio: 1 ± 0.027 for the first, 0.976 ± 0.064 for the second.

TTATGGGTCG and AAGTGTGTTC are within error of each other in switch fluorescence ratio: 0.99 ± 0.034 for the first, 0.999 ± 0.016 for the second.

AAGGGCATTA and GGGTGGCCAA are within error of each other in switch fluorescence ratio: 0.9891 ± 0.0096 for the first, 0.981 ± 0.012 for the second.

First: TGACGAACTC
Second: CAGGGATGGG
The switch fluorescence ratio of the first is higher: 1.32 ± 0.045 for the first, 0.961 ± 0.023 for the second.

TCCTTTTGT and AATGGTCATG are within error of each other in switch fluorescence ratio: 1.02 ± 0.068 for the first, 0.993 ± 0.075 for the second.

GGGGCGTTTG and AATTCAGGCA are within error of each other in switch fluorescence ratio: 0.961 ± 0.057 for the first, 0.98668 ± 0.00049 for the second.

GTTGTTGAGG was tested, and the switch fluorescence ratio was 0.999 ± 0.012.
